Columns and labels:
[1] = biological target: T1, human CD19 on CD19-positive cells (Daudi, Raji, Ramos; CD19+ tumor cell line) (human, UniProt P15391 20-556); assay: cell binding, flow cytometry
T1 construct: whole, on cells
T1 sequence (looked up): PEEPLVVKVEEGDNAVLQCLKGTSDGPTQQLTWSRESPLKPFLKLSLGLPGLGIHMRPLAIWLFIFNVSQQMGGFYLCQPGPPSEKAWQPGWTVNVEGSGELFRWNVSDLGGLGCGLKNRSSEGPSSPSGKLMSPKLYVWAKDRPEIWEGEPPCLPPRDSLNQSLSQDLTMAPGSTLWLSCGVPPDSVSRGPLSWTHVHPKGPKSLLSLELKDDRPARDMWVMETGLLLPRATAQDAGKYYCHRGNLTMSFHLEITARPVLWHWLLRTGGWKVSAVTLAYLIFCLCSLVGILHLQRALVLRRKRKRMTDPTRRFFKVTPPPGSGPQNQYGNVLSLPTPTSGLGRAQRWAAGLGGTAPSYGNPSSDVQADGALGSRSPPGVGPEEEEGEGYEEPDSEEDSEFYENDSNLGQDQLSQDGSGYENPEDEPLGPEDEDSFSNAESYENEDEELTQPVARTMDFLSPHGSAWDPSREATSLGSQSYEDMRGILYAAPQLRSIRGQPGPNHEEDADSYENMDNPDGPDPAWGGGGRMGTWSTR
Procedure: Binding to CD19 positive cells was assessed by flow cytometry (Guava easyCyte 8HT, EMD Millipore) using the Daudi cell line (ATCC). Briefly, 100,000 target cells were stained with a dilution series of purified UniAbs™ for 30 minutes at 4° C. Following incubation, the cells were washed twice with flow cytometry buffer (1X PBS, 1% BSA, 0.1% NaN₃) and stained with goat F(ab′)2 anti-human IgG conjugated to R-phycoerythrin (PE) (Southern Biotech, cat. #2042-09) to detect cell-bound antibodies. After a 20-minute incubation at 4° C., the cells were washed twice with flow cytometry buffer and then mean fluorescence intensity (MFI) was measured by flow cytometry. EC50 values were calculated using GraphPad Prism 7. Binding to cynomolgus CD19 positive cells was determined using the same protocol with the following modifications: the target cells were from CHO cells stably transfected to express the extracellular domain of cynomolgus CD19 and each antibody was tested at a single concentration (˜1.7 μg/mL) so EC50 values were not calculated.

human CD19 = biological target: T2, human CD19 (human, UniProt P15391 20-291); assay: ELISA on recombinant CD19 extracellular domain and/or cell-binding assay
T2 construct: also called B-Lymphocyte Surface Antigen B4; recombinant CD19 extracellular domain
T2 sequence (looked up): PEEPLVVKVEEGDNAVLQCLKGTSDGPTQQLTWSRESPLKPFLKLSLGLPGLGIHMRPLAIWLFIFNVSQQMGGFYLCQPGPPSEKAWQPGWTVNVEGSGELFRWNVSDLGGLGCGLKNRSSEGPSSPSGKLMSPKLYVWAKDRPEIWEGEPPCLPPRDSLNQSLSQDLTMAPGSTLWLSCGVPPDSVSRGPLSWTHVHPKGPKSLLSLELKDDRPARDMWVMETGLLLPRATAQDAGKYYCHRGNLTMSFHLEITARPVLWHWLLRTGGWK

B1: SEQ ID NO 21 (antibody, V domains shown)
VH: EVQLVESGGGLVQPGGSLRLSCVASGFTFSSYWMSWVRQAPGKGLEWVANIKQDGSEKEYVDSVKGRFTISRDNAKNSLYLQMNSLRAEDTAVYYCASGVYSFDYRGQGTLVTVSS
notes: Heavy chain-only antibody (UniAb, human IgG, no light chain, no CH1)
B1: binds [1]; binds (human CD19).

B2: SEQ ID NO 14 (antibody, V domains shown)
VH: EVQLVESGGGLVQPGGSLRLSCAASGFTFSNYWMSWVRQAPGKGQEWVATINQDGSDKDYVDSVKGRFTISRDNAKKSLYLQMNSLRAEDTAVYYCASGVYSFDYRGQGTLVTVSS
notes: as for B1
B2: binds [1]; binds (human CD19).

B3: SEQ ID NO 16 (antibody, V domains shown)
VH: EVQLVESGGGMVQPGGSLRLSCAASGFTFSSYWMSWVRQAPGKGLEWVATINQDGSEKDYVDSVKGRFTISRDNAKKSLLLQMNSLRAEDTAVYYCASGVYSFDYRGQGTLVTVSS
notes: as for B1
B3: binds [1]; binds (human CD19).

B4: SEQ ID NO 17 (antibody, V domains shown)
VH: EVQLVESGGGLVQPGGSLRLSCAASGFSFSDFWMSWVRQAPGKGLEWVATISQAGSEKDYVDSVKGRFTISRDNAKKSLYLQMNSLRAEDTAVYYCASGVYSFDYRGQGTLVTVSS
notes: as for B1
B4: binds [1]; binds (human CD19).

B5: SEQ ID NO 18 (antibody, V domains shown)
VH: EVQLVESGGGLVKPGGSLRLSCEASGFTFSSYWMSWVRQAPGKGLEWVAHIKQDGSEKYYVDSVKGRFTISRDNAKNSLYLQMNSLRAEDTAVYYCASGVYSFDYRGQGTLVTVSS
notes: as for B1
B5: binds [1]; binds (human CD19).

B6: SEQ ID NO 19 (antibody, V domains shown)
VH: EVQLVESGGGLVQPGGSLRLSCVASGFTFSDYWMSWVRQAPGKGLEWVANINKAGSEEFYVDSVKGRFTISRDNAKNSLYLQMDSLRAEDTAVYYCASGVYSFDYRGQGTLVTVSS
notes: as for B1
B6: binds [1]; binds (human CD19).

B7: SEQ ID NO 15 (antibody, V domains shown)
VH: EVQLVESGGGLAQPGGSLRLSCAASGFTFSSFWMSWVRQAPGKGLEWVATMNQDGSEKDYVDSVKGRFTISRDNAKNSLYLQMNSLTAEDTAVYYCASGVYSFDYRGQGTLVTVSS
notes: as for B1
B7: binds [1]; binds (human CD19).

B8: SEQ ID NO 20 (antibody, V domains shown)
VH: EVQLVESGGGLVQPGGSLTLSCVASGFTFSDYYMSWIRQAPGKGLEWVANIKQDGSEKFYVDSVKGRFTISRDNPKNSLYLQMDSLRVEDTAVYYCASGVYSFDYRGQGTLVTVSS
notes: as for B1
B8: binds [1]; binds (human CD19).
